Literature values, collected in patent publication US20240173301A1, “2-IMINOBIOTIN FOR USE IN THE TREATMENT OF STROKE” (NEUROPHYXIA B.V., priority 2021, published 2024).

Details: acute ischemic stroke, intravenous thrombolysis

B1: Alteplase (protein, UniProt P00750 36-562, looked up)
Tissue-type plasminogen …: SYQVICRDEKTQMIYQQHQSWLRPVLRSNRVEYCWCNSGRAQCHSVPVKSCSEPRCFNGGTCQQALYFSDFVCQCPEGFAGKCCEIDTRATCYEDQGISYRGTWSTAESGAECTNWNSSALAQKPYSGRRPDAIRLGLGNHNYCRNPDRDSKPWCYVFKAGKYSSEFCSTPACSEGNSDCYFGNGSAYRGTHSLTESGASCLPWNSMILIGKVYTAQNPSAQALGLGKHNYCRNPDGDAKPWCHVLKNRRLTWEYCDVPSCSTCGLRQYSQPQFRIKGGLFADIASHPWQAAIFAKHRRSPGERFLCGGILISSCWILSAAHCFQERFPPHHLTVILGRTYRVVPGEEEQKFEVEKYIVHKEFDDDTYDNDIALLQLKSDSSRCAQESSVVRTVCLPPADLQLPDWTECELSGYGKHEALSPFYSERLKEAHVRLYPSSRCTSQHLLNRTVTDNMLCAGDTRSGGPQANLHDACQGDSGGPLVCLNDGRMTLVGIISWGLGCGQKDVPGVYTKVTNYLDWIRDNMRP
notes: fibrinolytic drug
  risk of a poor outcome: reduced the risk of a poor outcome
